Data reported in US7842293B2, “Compositions and methods using anti-CS1 antibodies to treat multiple myeloma” (Facet Biotech Corporation, priority 2006, dated 2010).

Assays:
[1] = system: L363 cells; experiment: In vivo mouse multiple myeloma xenograft model, L363 tumors; settings: L363 tumor-bearing mice, HuLuc63 10 mg/kg twice weekly for three weeks
Experimental: (§1) Six- to eight-week old female IcrTac:ICR-Prkdcscid mice obtained from Taconic Farms (Germantown, N.Y.) were inoculated with 1×10^7 OPM2 or L363 cells (German Collection of Microorganisms and Cell Cultures, Braunschweig, Germany) into the lower right flank. Caliper measurements were performed twice weekly to calculate tumor volume using the following formula: L×W×H/2, where L (length) is the longest side of the tumor in the plane of the animal's back, W (width) is the longest measurement perpendicular to the length and in the same plane and H (height) is taken at the highest point perpendicular to the back of the animal. When tumors reached an average size of about 100 mm^3, animals were randomized into 3 groups of 8-10 mice each and were treated with 1 or 10 mg/kg of HuLuc63 or isotype control antibody administered intraperitoneally twice a week for a maximum of 6 doses.
(§2) Tumor growth was monitored for a period of 1-2 months. Animal work was carried out under NIH guidelines (“Guide for the Care and Use of Laboratory Animals”) using protocols approved by IACUC at PDL BioPharma.
(§3) CS1 protein expression was examined on the L363 multiple myeloma cell line. […] The combination of HuLuc63 with Thal was tested for anti-myeloma activity in vivo. L363 tumor-bearing mice were treated with HuLuc63, or isotype control antibody twice weekly for three weeks at 10 mg/kg. Thal was given 5 days a week at 50 mg/kg for a maximum of 15 doses to mice receiving either isotype control antibody or HuLuc63.
L363 tumor-bearing mice were treated with HuLuc63, or isotype control antibody twice weekly for three weeks at 10 mg/kg. Thal was given 5 days a week at 50 mg/kg for a maximum of 15 doses and Dex was given twice a week at 10 mg/kg for a maximum of 6 doses to mice receiving either isotype control antibody or HuLuc63.
To determine if an anti-angiogenic drug can enhance the antitumor effects of HuLuc63, a combination of HuLuc63 with Bevacizumab was tested for anti-myeloma activity in vivo, as described above. L363 tumor-bearing mice were treated with HuLuc63, or isotype control antibody twice weekly for three weeks at 10 mg/kg. Bevacizumab was given twice a week at 0.5 mg/kg for a maximum of 6 doses to mice receiving either isotype control antibody or HuLuc63.

[2] = system: CS1; experiment: CS1 protein expression on L363 multiple myeloma cell line (flow cytometry); format: cell-based
Experimental: The effect of HuLuc63 and Thal treatment on the expression of CS1 in MM cell lines and mouse xenograft tumors was examined by flow cytometry and immunohistochemistry respectively, as described above.
as §3

[3] = system: myeloma tumor; settings: myeloma mouse tumor model; from U.S. Patent Publication No. 2005/0025763; cited from earlier work
[4] = system: CS1; experiment: CS1 protein expression on OPM2 multiple myeloma cell line (flow cytometry); format: cell-based
Experimental: The effect of HuLuc63 and Dex treatment on the expression of CS1 in MM cell lines and mouse xenograft tumors was examined by flow cytometry and immunohistochemistry respectively.
CS1 protein expression was examined on the OPM2 multiple myeloma cell line. […] The combination of HuLuc63 with Dex was tested for anti-myeloma activity in vivo. OPM2 tumor-bearing mice were treated with sub-optimal doses of HuLuc63 (1 mg/kg), or isotype control antibody twice weekly for three weeks. Dex was given twice a week at 10 mg/kg to mice receiving either isotype control antibody or HuLuc63.

[5] = system: OPM2 cells; experiment: In vivo mouse multiple myeloma xenograft model, OPM2 tumors; settings: OPM2 tumor-bearing mice; HuLuc63 1 mg/kg (sub-optimal) twice weekly for three weeks; Dex 10 mg/kg twice a week; i.p.; FIG. 1
Experimental: as §1
Dex was administered intraperitoneally at a dose of 10 mg/kg twice a week for a maximum of 6 doses.
as §2
CS1 protein expression was examined on the OPM2 multiple myeloma cell line. […] The combination of HuLuc63 with Dex was tested for anti-myeloma activity in vivo. […]

[6] = system: myeloma cells; settings: from U.S. Patent Publication No. 2005/0025763; cited from earlier work
[7] = Bevacizumab 0.5 mg/kg twice a week, max 6 doses, FIG. 4
[8] = Thal 50 mg/kg 5 days a week, max 15 doses, FIG. 2

In the case of “Bevacizumab: monoclonal antibody that targets the endothelial growth factor VEGF [reference compound]”, the anti-tumor activity [1, 7] is reported as “did not exhibit significant anti-tumor activity”.

In the case of `O=C1CCC(N2C(=O)c3ccccc3C2=O)C(=O)N1` (centres unmarked) [Thal, Thalidomide, reference compound], the “change in CS1 expression pre- or post-treatment” value (from here on “change”) [2] is reported as “No significant change in CS1 expression” and the anti-tumor activity [1, 8] is reported as “Significant anti-tumor activity”.

B1: HuLuc63: humanized recombinant monoclonal IgG1 antibody directed to human CS1; heavy chain variable region SEQ ID NO: 5, light chain variable region SEQ ID NO: 6 (antibody, listed as Homo sapiens, V domains shown)
VH: EVQLVESGGGLVQPGGSLRLSCAASGFDFSRYWMSWVRQAPGKGLEWIGEINPDSSTINYAPSLKDKFIISRDNAKNSLYLQMNSLRAEDTAVYYCARPDGNYWYFDVWGQGTLVTVSS
VL: DIQMTQSPSSLSASVGDRVTITCKASQDVGIAVAWYQQKPGKVPKLLIYWASTRHTGVPDRFSGSGSGTDFTLTISSLQPEDVATYYCQQYSSYPYTFGQGTKVEIK
In the case of B1, the “reduction of tumor mass” value [3] is given as “more than 50%”, the “change” value [4] is given as “No significant change in CS1 expression” and the anti-tumor activity [5] is given as “significant anti-tumor activity”. The “change” value [2] was “No significant change in CS1 expression”, the anti-tumor activity [1, 7] was “Significant anti-tumor activity” and the anti-tumor activity [1, 8] was “Significant anti-tumor activity”. The anti-tumor activity ([1]; Thal 50 mg/kg 5 days a week, Dex 10 mg/kg twice a week, FIG. 3) was “significant anti-tumor activity” and the “lysis of myeloma cells via ADCC” value [6] was “effectively mediates lysis of myeloma cells”.
